We go through 38 sequences from the supplement of paper PMC7877785.

This series is described as follows: self-splicing fitness, log relative to wild type (ln ratio); higher = more splicing; Tetrahymena group I intron in knt gene, E. coli kanamycin selection, DiMSum; sequences stand for … in CUCUCU…GGAGGGAAAAGUUAUCAGGCAUGCACCUGGUAGCUAGUCUUUAAACCAAUAGAUUGCAUCGGUUUAAAAGGCAAGACCGUCAAAUUGCGGGAAAGGGGUCAACAGCCGUUCAGUACCAAGUCUCAGGGGAAACUUUGAGAUGGCCUUGCAAAGGGUAUGGUAAUAAGCUGACGGACAUGGUCCUAACCACGCAGCCAAGUCCUAAGUCAACAGAUCUUCUGUUGAUAUGGAUGCAGUUCACAGACUAAAUGUCGGUCGGGGAAGAUGUAUUCUUCUCAUAAGAUAUAGUCGGACCUCUCCUUAAUGGGAGCUAGCGGAUGAAGUGAUGCAACACUGGAGCCGCUGGGAACUAAUUUGUAUGCGAAAGUAUAUUGAUUAGUUUUGGAGUACUCGUGGUCG
In a few lines:
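Fitness was computed with DiMSum as the error-weighted combination of replicate fold changes, kanamycin versus none, each normalised to wild type. The library randomised all eight intron nucleotides of the P1ex region, with the intron placed in the knt kanamycin-resistance gene on pET-22b(+) in E. coli BL21(DE3). Six replicate transformations were grown overnight at 37°C or 30°C on LB agar with or without 25 μg/mL kanamycin, plus 100 μg/mL carbenicillin, 50 μM IPTG and 0.2% rhamnose. Pooled colonies were amplicon-sequenced on an Illumina HiSeq 2500.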

± gives the uncertainty stated by the source.

On to GUGUAGCAAUAUUACGGCAG, for which, under “37 °C”, the “self-splicing fitness (ln)” value was -0.824 ± 0.23.

Turning to GGUUAGCAAUAUUACGAUGA, the “self-splicing fitness (ln)” value is -0.915 ± 0.12 (30 °C) and -0.286 ± 0.13 (37 °C).

As to CACUAGCAAUAUUACGGAAA, the “self-splicing fitness (ln)” value was -1.99 ± 0.42 (30 °C) and -1.42 ± 0.5 (37 °C).

For CGAAAGCAAUAUUACGUUGG, the “self-splicing fitness (ln)” value (30 °C) was -1.66 ± 0.08 and the “self-splicing fitness (ln)” value (37 °C) was -0.961 ± 0.097.

As for CGAUAGCAAUAUUACGCUCG, under “37 °C”, the “self-splicing fitness (ln)” value is -2.03 ± 0.47.

In the case of GCGUAGCAAUAUUACGGUGC, the “self-splicing fitness (ln)” value by setting is: (30 °C) -3.73 ± 0.32; (37 °C) -2.95 ± 0.47.

For UAGCAGCAAUAUUACGCUCA, the “self-splicing fitness (ln)” value was -0.152 ± 0.095 (30 °C) and 0.307 ± 0.1 (37 °C).

Consider GCAAAGCAAUAUUACGUAUG, for which the “self-splicing fitness (ln)” value by setting is: (30 °C) -2.9 ± 0.11; (37 °C) -2.71 ± 0.2.

As for GGCAAGCAAUAUUACGCCCU, the “self-splicing fitness (ln)” value (30 °C) is -2.53 ± 0.26 and the “self-splicing fitness (ln)” value (37 °C) was -0.495 ± 0.19.

As for CAUCAGCAAUAUUACGGUCG, the “self-splicing fitness (ln)” value came out at 0.0182 ± 0.075 (30 °C) and 0.236 ± 0.093 (37 °C).

As to AGGUAGCAAUAUUACGUAAC, the “self-splicing fitness (ln)” value is, setting by setting: (30 °C) -2.092 ± 0.019; (37 °C) -1.18 ± 0.035.

CGACAGCAAUAUUACGACGU: the “self-splicing fitness (ln)” value was -1.07 ± 0.07 (30 °C) and 0.0477 ± 0.086 (37 °C).

Consider GGGUAGCAAUAUUACGCGUG, for which the “self-splicing fitness (ln)” value was -0.787 ± 0.13 (30 °C) and 0.175 ± 0.12 (37 °C).

UAUUAGCAAUAUUACGAGCU: the “self-splicing fitness (ln)” value was -2.63 ± 0.26 (30 °C) and 0.924 ± 0.21 (37 °C).

As to UACAAGCAAUAUUACGGCUC, the “self-splicing fitness (ln)” value (30 °C) was -1.46 ± 0.088 and the “self-splicing fitness (ln)” value (37 °C) is -0.468 ± 0.11.

Take UAGCAGCAAUAUUACGCACA: the “self-splicing fitness (ln)” value (30 °C) is -0.126 ± 0.072 and the “self-splicing fitness (ln)” value (37 °C) amounted to 0.0233 ± 0.11.

Turning to CAGGAGCAAUAUUACGCGGG, the “self-splicing fitness (ln)” value reads like this: (30 °C) -0.771 ± 0.15; (37 °C) -1.84 ± 0.14.

As for CACUAGCAAUAUUACGUCAU, the “self-splicing fitness (ln)” value is, setting by setting: (30 °C) -5.15 ± 0.41; (37 °C) -2.79 ± 0.23.

On to UGCCAGCAAUAUUACGGGGC, for which the “self-splicing fitness (ln)” value is -3.04 ± 0.16 (30 °C) and -1.74 ± 0.17 (37 °C).

For GUUAAGCAAUAUUACGUGUU, the “self-splicing fitness (ln)” value (30 °C) is -3.27 ± 0.14 and the “self-splicing fitness (ln)” value (37 °C) was -1.11 ± 0.1.

On to AUUCAGCAAUAUUACGCCGG, for which the “self-splicing fitness (ln)” value is, setting by setting: (30 °C) -1.07 ± 0.13; (37 °C) -0.848 ± 0.19.

With CCAAAGCAAUAUUACGGGGC, the “self-splicing fitness (ln)” value (30 °C) is -3.09 ± 0.19 and the “self-splicing fitness (ln)” value (37 °C) is -2.93 ± 0.27.

Consider CAUUAGCAAUAUUACGCGAU, for which the “self-splicing fitness (ln)” value (30 °C) is -3.83 ± 0.32 and the “self-splicing fitness (ln)” value (37 °C) was -1.52 ± 0.23.

AUUCAGCAAUAUUACGCUUU: the “self-splicing fitness (ln)” value runs as follows: (30 °C) -0.755 ± 0.055; (37 °C) -0.787 ± 0.068.

GCAAAGCAAUAUUACGUCGA: the “self-splicing fitness (ln)” value was -1.83 ± 0.091 (30 °C) and -0.578 ± 0.094 (37 °C).

Consider UUCCAGCAAUAUUACGGAUU, for which the “self-splicing fitness (ln)” value by setting is: (30 °C) -1.9 ± 0.11; (37 °C) -1.01 ± 0.12.

On to CGAUAGCAAUAUUACGUCCC, for which the “self-splicing fitness (ln)” value reads like this: (30 °C) -1.28 ± 0.23; (37 °C) -0.717 ± 0.28.

On to GAAAAGCAAUAUUACGAUAA, for which the “self-splicing fitness (ln)” value by setting is: (30 °C) -1.58 ± 0.081; (37 °C) -0.197 ± 0.091.

As to GCAUAGCAAUAUUACGAACU, the “self-splicing fitness (ln)” value reads like this: (30 °C) -1.11 ± 0.084; (37 °C) -0.315 ± 0.11.

Take CCCGAGCAAUAUUACGUCCG: the “self-splicing fitness (ln)” value runs as follows: (30 °C) -2.11 ± 0.4; (37 °C) -1.98 ± 0.36.

In the case of AAAUAGCAAUAUUACGUUAU, the “self-splicing fitness (ln)” value was -3.39 ± 0.18 (30 °C) and -2 ± 0.15 (37 °C).

For the sequence CUAUAGCAAUAUUACGUAGU, the “self-splicing fitness (ln)” value is, setting by setting: (30 °C) -2.88 ± 0.16; (37 °C) -2.26 ± 0.23.

In the case of AGAGAGCAAUAUUACGUAAG, the “self-splicing fitness (ln)” value runs as follows: (30 °C) -3.25 ± 0.26; (37 °C) -2.7 ± 0.36.

Turning to AAACAGCAAUAUUACGCUUU, the “self-splicing fitness (ln)” value was -3.11 ± 0.095 (30 °C) and -1.33 ± 0.083 (37 °C).

Consider GCUCAGCAAUAUUACGUUCU, for which the “self-splicing fitness (ln)” value reads like this: (30 °C) -0.649 ± 0.074; (37 °C) -0.195 ± 0.09.

For the sequence UUCGAGCAAUAUUACGGGCG, the “self-splicing fitness (ln)” value is -2.45 ± 0.2 (30 °C) and -1.01 ± 0.18 (37 °C).

Turning to AGACAGCAAUAUUACGAUGC, the “self-splicing fitness (ln)” value runs as follows: (30 °C) -3.36 ± 0.23; (37 °C) -2.33 ± 0.19.

For the sequence CUUUAGCAAUAUUACGGUAU, the “self-splicing fitness (ln)” value (30 °C) was -4.49 ± 0.34 and the “self-splicing fitness (ln)” value (37 °C) was -2.4 ± 0.24.
